Test results taken from the supplement of paper PMC10567573.

B1: VDR (parent)
chain: LIKFQVGLKKLNLHEEEHVLLMAI
B2: C9orf9 (parent)
chain: LTKASLKPRGCSKPPWRPPGGKL

Variants of: B1
Test: protein stability index of a GFP-peptide fusion (GPS, HEK-293T) (PSI 1-6); higher = more stable
Conditions: c terminus: a fixed tail appended
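Further: lentivirally expressed fusions sorted by FACS into six bins by GFP to DsRed ratio, PSI derived from sequencing read proportions per bin multiplied by bin number.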

In order of falling protein stability index:
1. LIKFQVGLKKLNLHEEEHVLVMAI  4.64
2. LIKFQVGLKKLNLHEEEHDLLMAI  3.54
3. LIKFQVGLKKLNLHEEEHVLLMLI  3.49
4. LIKFQVGLKKLNLHEEEHVLKMAI  3.43
5. LIKFQVGLKKLNLHEEEHVLLMDI  3.29
6. LIKFQVGLKKLNLHEEEHVLCMAI  3.18
7. LIKFQVGLKKLNLHEEEHVLLMYI  3.16
8. LIKFQVGLKKLNLHEEEHHLLMAI  3.1
9. LIKFQVGLKKLNLHEEEHQLLMAI  3.04
10. LIKFQVGLKKLNLYEEEHVLLMAI  2.93
11. LIKFQVGLKKLNLHEEEHVLYMAI  2.92
12. LIKFQVGLKKLNLHEEEHRLLMAI  2.89
13. LIKFQVGLKKLNLHEEEHVLGMAI  2.76
14. LIKFQVGLKKLNLHEEEHTLLMAI  2.52
15. LIKFQVGLKKLNLHEEEHFLLMAI  2.52
16. LIKFQVGLKKLNLHEEEHVLLMHI  2.49
17. LIKFQVGLKKLNLHEEEHVLMMAI  2.45
18. LIKFQVGLKKLNLQEEEHVLLMAI  2.43
19. LIKFQVGLKKLNLHEEEHVLLMRI  2.37
20. LIKFQVGLKKLNLCEEEHVLLMAI  2.28
21. LIKFQVGLKKLNLHEEEHVLLMEI  2.23
22. LIKFQVGLKKLNLHEEEHVLSMAI  2.08
23. LIKFQVGLKKLNLHEEEHVLQMAI  2.02
24. LIKFQVGLKKLNLHEEEHKLLMAI  1.99
25. LIKFQVGLKKLNLHEEEHILLMAI  1.93
26. LIKFQVGLKKLNLHEEEHVLDMAI  1.85
27. LIKFQVGLKKLNLHEEEHVLLMVI  1.85
28. LIKFQVGLKKLNLHEEEHVLPMAI  1.69
29. LIKFQVGLKKLNLHEEEHVLNMAI  1.68
30. LIKFQVGLKKLNLHEEEHCLLMAI  1.63
31. LIKFQVGLKKLNLHEEEHNLLMAI  1.59
32. LIKFQVGLKKLNLHEEEHALLMAI  1.58
33. LIKFQVGLKKLNLHEEEHGLLMAI  1.4
34. LIKFQVGLKKLNLHEEEHWLLMAI  1.04

Variants of: B2
Test: as above
Conditions: c terminus: native

In order of rising protein stability index:
1. LTKLSLKPRGCSKPPWRPPGGKL  1.08
2. LTKDSLKPRGCSKPPWRPPGGKL  1.25
3. LQKASLKPRGCSKPPWRPPGGKL  1.32
4. LGKASLKPRGCSKPPWRPPGGKL  1.36
5. LTKGSLKPRGCSKPPWRPPGGKL  1.36
6. LTAASLKPRGCSKPPWRPPGGKL  1.38
7. LTFASLKPRGCSKPPWRPPGGKL  1.51
8. LVKASLKPRGCSKPPWRPPGGKL  1.58
9. LTKVSLKPRGCSKPPWRPPGGKL  1.58
10. LTKISLKPRGCSKPPWRPPGGKL  1.61
11. LTKCSLKPRGCSKPPWRPPGGKL  1.63
12. LTKQSLKPRGCSKPPWRPPGGKL  1.65
13. LAKASLKPRGCSKPPWRPPGGKL  1.67
14. LTKMSLKPRGCSKPPWRPPGGKL  1.69
15. ITKASLKPRGCSKPPWRPPGGKL  1.71
16. LTGASLKPRGCSKPPWRPPGGKL  1.74
17. LTKFSLKPRGCSKPPWRPPGGKL  1.75
18. DTKASLKPRGCSKPPWRPPGGKL  1.76
19. LDKASLKPRGCSKPPWRPPGGKL  1.78
20. LTKTSLKPRGCSKPPWRPPGGKL  1.78
21. VTKASLKPRGCSKPPWRPPGGKL  1.8
22. LTKKSLKPRGCSKPPWRPPGGKL  1.8
23. HTKASLKPRGCSKPPWRPPGGKL  1.82
24. LRKASLKPRGCSKPPWRPPGGKL  1.85
25. KTKASLKPRGCSKPPWRPPGGKL  1.85
26. TTKASLKPRGCSKPPWRPPGGKL  1.85
27. LIKASLKPRGCSKPPWRPPGGKL  1.86
28. MTKASLKPRGCSKPPWRPPGGKL  1.86
29. WTKASLKPRGCSKPPWRPPGGKL  1.89
30. LTSASLKPRGCSKPPWRPPGGKL  1.91
31. LFKASLKPRGCSKPPWRPPGGKL  1.95
32. LCKASLKPRGCSKPPWRPPGGKL  1.96
33. LTKHSLKPRGCSKPPWRPPGGKL  1.96
34. LTEASLKPRGCSKPPWRPPGGKL  1.97
35. LTKNSLKPRGCSKPPWRPPGGKL  2
36. LTKSSLKPRGCSKPPWRPPGGKL  2.02
37. PTKASLKPRGCSKPPWRPPGGKL  2.06
38. LTNASLKPRGCSKPPWRPPGGKL  2.08
39. ETKASLKPRGCSKPPWRPPGGKL  2.09
40. LHKASLKPRGCSKPPWRPPGGKL  2.12
41. RTKASLKPRGCSKPPWRPPGGKL  2.13
42. LTTASLKPRGCSKPPWRPPGGKL  2.19
43. LNKASLKPRGCSKPPWRPPGGKL  2.21
44. LLKASLKPRGCSKPPWRPPGGKL  2.26
45. LKKASLKPRGCSKPPWRPPGGKL  2.28
46. LTHASLKPRGCSKPPWRPPGGKL  2.28
47. FTKASLKPRGCSKPPWRPPGGKL  2.29
48. YTKASLKPRGCSKPPWRPPGGKL  2.31
49. LTLASLKPRGCSKPPWRPPGGKL  2.36
50. LTDASLKPRGCSKPPWRPPGGKL  2.39
51. GTKASLKPRGCSKPPWRPPGGKL  2.5
52. LSKASLKPRGCSKPPWRPPGGKL  2.59
53. LTQASLKPRGCSKPPWRPPGGKL  2.6
54. LTPASLKPRGCSKPPWRPPGGKL  2.66
55. LPKASLKPRGCSKPPWRPPGGKL  2.72
56. LTYASLKPRGCSKPPWRPPGGKL  2.73
57. STKASLKPRGCSKPPWRPPGGKL  2.78
58. LTVASLKPRGCSKPPWRPPGGKL  2.86
59. QTKASLKPRGCSKPPWRPPGGKL  3.17
60. LTKPSLKPRGCSKPPWRPPGGKL  3.55
61. NTKASLKPRGCSKPPWRPPGGKL  3.8
